The record followed here is US20110243928A1 (published 2011).

Experiment [1] concerns the target T1, E. coli-expressed recombinant human IL-13 (human, UniProt P35225 35-146).
T1 construct: Untagged E. coli-expressed human IL-13; also called hIL-13; human IL13 (CA)
The experiment can be described thus: BIAcore, summary of the analyses.

The target of experiment [2] is T2, 16mer biotinylated human IL-13 peptide number 24 (human, N-terminal biotin; C-terminal amide).
T2 construct: format Biotin-SGSG-PEPTIDE-amide; also called Peptide 24
T2 peptide: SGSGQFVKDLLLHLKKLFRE
As to the kind of experiment: BIAcore analysis 3, antibody over immobilised biotinylated peptide 24. As to the method: Completed for the 16mer biotinylated human IL-13 peptide number 24 (identified as the linear binding epitope for parental mAb 6A1, see section 6.7). Note that the absolute KD values obtained for binding to peptide ligands are often quite different to those seen for binding to whole protein targets.
The kinetics analysis was performed on a Biacore 3000 machine using direct binding of antibody to immobilised IL-13 peptide. Briefly, IL-13 biotinylated peptide was captured using a Biacore SA (strepavidin) Biosensor chip. The antibodies were then passed over the sensor surface at various concentrations. The subsequent binding curves were analysed with Biacore analysis software BIAeval 4.1 to determine kinetics. The experiment was carried out using Biacore HBS-EP buffer
A general note: SPR reads the build-up and loss of mass on a sensor chip optically.

Experiment [3] has as its target T3, E. coli-expressed recombinant cynomolgus IL-13 (cynomolgus, UniProt Q5I6E4 21-132 (Macaca thibetana entry)).
T3 construct: also called cyno IL13 (CA); cIL-13
T3 chain: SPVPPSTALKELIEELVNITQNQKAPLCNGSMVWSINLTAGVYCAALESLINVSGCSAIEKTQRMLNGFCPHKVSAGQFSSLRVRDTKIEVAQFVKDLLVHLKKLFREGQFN
As to the kind of experiment: BIAcore analysis 4, antibody captured on Protein A, IL-13 in solution. Here is the method:
Completed for both human and cynomolgus IL-13 (E. coli-expressed protein). The quoted KD values are the average from 5 different IL-13 concentration curves (done in triplicate).
The kinetics analysis was performed on a Biacore 3000 machine, using an antibody capture method. Briefly, for the chimeric 6A1 and humanised antibody constructs Protein A capture was used, whilst for the parental murine 6A1 antibody, capture was by a anti-mouse Fc antibody supplied by Biacore. Briefly, the method is as follows, the capture ligand was immobilised to a CM5 Biosensor chip by primary amine coupling in accordance with Biacore standard protocols and using the reagents supplied in Biacores' primary amine coupling kit. The method involves activation CM5 sensor surface by passing a solution of 50 mM N-hydroxy-succinimide (NHS) and 200 mM N-ethyl-N′-dimethylaminopropyl […] (EDC) over the surface. Then, the capture ligand (dissolved in acetate buffer pH5 or pH4.5) was coupled to the activated sensor surface after which any still activated esters were blocked by an injection of 1M ethanolamine hydrochloride, pH8.5.
The candidate antibody was then passed over the Protein A or anti-mouse Fc antibody surface, depending on whether it was human or mouse in origin and captured. Once a stable binding signal was seen IL13 was passed over the captured antibody surface at various defined concentrations. The subsequent binding curves were analysed with Biacore analysis software BIAeval v4.1 to determine kinetics. The experiments were carried out using Biacore HBS-EP buffer.

Experiment [4] has as its target T4, E. coli-expressed recombinant human IL-4 (human, UniProt P05112 25-153).
T4 sequence (looked up): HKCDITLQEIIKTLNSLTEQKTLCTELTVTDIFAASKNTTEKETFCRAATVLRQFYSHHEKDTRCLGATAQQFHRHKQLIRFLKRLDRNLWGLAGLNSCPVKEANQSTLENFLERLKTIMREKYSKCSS
As to the kind of experiment: binding ELISA. In general terms: An ELISA detects its analyte on a solid surface through an enzyme-linked reagent.

The target in experiment [5] is E. coli-expressed recombinant human GM-CSF (human, UniProt P04141 18-144). As to the kind of experiment: binding ELISA.
Experiment [6] addresses T4, E. coli-expressed recombinant human IL-4. The experiment can be described thus: human IL-4 binding sandwich ELISA.

T1 sequence (P35225 other isoform, or with tags, fused parts or gaps): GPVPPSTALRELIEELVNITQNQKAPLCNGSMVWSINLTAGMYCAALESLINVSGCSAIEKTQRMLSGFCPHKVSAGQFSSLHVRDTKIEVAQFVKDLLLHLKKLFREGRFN
Chain of E. coli-expressed recombinant human GM-CSF (P04141 18-144 limits assumed): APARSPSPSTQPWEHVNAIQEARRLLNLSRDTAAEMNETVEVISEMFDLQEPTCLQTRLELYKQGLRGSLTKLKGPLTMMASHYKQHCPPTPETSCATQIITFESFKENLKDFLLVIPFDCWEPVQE

B1: L1+A1 (antibody, human IgG1, kappa, V domains shown)
VH: QVQLVQSGAEVKKPGSSVKVSCKASGFYIKDTYMHWVRQAPGQGLEWMGTIDPANGNTKYVPKFQGRVTITADESTSTAYMELSSLRSEDTAVYYCARSIYDDYHYDDYYAMDYWGQGTLVTVSS
VL: DIVMTQSPLSLPVTPGEPASISCRSSQNIVHINGNTYLEWYLQKPGQSPRLLIYKISDRFSGVPDRFSGSGSGTDFTLKISRVEADDVGIYYCFQGSHVPWTFGQGTKLEIKR
notes: Humanised 6A1, VH construct A1 and VL construct L1, human gamma1 wild type / kappa constant regions; also called A1L1; humanised anti-IL-13 mAb L1+A1
As a reminder, the Kd is the concentration at which binding is half-saturated. Usually koff stands for the first-order rate constant of dissociation. As usually defined, the kon is the rate constant with which the complex forms. Take B1: in experiment [1], the Kd is around 0.168 nM, the dissociation rate constant (koff) is 8.22e-05 s⁻¹ and the kon is around 600000 M⁻¹ s⁻¹. The “fold reduction in affinity against chimaeric 6A1” value in experiment [2] was around 3 fold. Also, in experiment [3], the Kd was determined as 0.08 nM, the dissociation rate constant (koff) is 5.86e-05 s⁻¹ and the kon was 730000 M⁻¹ s⁻¹. For the same molecule, the binding result in experiment [4] is given as “no binding (tested: 30 µg/ml)”. In addition, the binding result in experiment [5] is “no binding (tested: 30 µg/ml)”.

B2: monoclonal antibody 6A1 (antibody, IgG1, V domains shown)
VH: EIQLQQSVAELVRPGASVRLSCTASGFYIKDTYMHWVIQRPEQGLEWIGTIDPANGNTKYVPKFQGKATITADTSSNTAYLRLSSLTSEDTAIYYCARSIYDDYHYDDYYAMDYWGQGTSVTVSS
VL: DVLMTQTPLSLPVSLGDQASISCRSSQNIVHINGNTYLEWYLQKPGQSPKLLIYKISDRFSGVPDRFSGSGSGTDFTLKISRVEAEDLGVYYCFQGSHVPWTFGGGTKLEIK
notes: also called 6A1 parental mAb; parental mouse mAb 6A1
Take B2: the binding result in experiment [6] is “no binding”.
